This is an account of results in publication PMC12102760 (2025).

Assay [1] concerns the target T1, EphA2 extracellular domain (ECD) (human, UniProt P29317 24-537). As to the kind of experiment: SPR.
Assay [2] addresses T1, EphA2 extracellular domain (ECD). As to the kind of experiment: SPR. This is another data set of the same source.

T1 sequence (P29317 24-537): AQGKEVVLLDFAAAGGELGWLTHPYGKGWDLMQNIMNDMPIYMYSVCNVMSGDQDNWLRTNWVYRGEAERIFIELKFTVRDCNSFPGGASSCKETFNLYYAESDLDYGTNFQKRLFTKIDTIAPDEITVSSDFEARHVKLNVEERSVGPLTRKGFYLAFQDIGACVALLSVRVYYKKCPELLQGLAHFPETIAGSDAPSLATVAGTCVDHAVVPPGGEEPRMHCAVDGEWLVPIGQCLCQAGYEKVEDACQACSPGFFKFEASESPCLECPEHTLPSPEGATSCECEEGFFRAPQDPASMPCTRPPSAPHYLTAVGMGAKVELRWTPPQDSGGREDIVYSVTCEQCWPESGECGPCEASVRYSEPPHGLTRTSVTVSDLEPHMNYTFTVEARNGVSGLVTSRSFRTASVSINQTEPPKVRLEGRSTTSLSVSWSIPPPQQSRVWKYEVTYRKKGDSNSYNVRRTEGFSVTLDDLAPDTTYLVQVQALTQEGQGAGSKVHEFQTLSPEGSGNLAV

B1: Fab L1 (Fab, V domains shown)
VH: EVQLVESGGGLVQPGGSLRLSCAASGFTISSSYIHWVRQAPGKGLEWVASISSYYGSTSYADSVKGRFTISADTSKNTAYLQMNSLRAEDTAVYYCARSHYSVWWGWHSVSYYAAFDYWGQGTLVTVSS
VL: DIQMTQSPSSLSASVGDRVTITCRASQSVSSAVAWYQQKPGKAPKLLIYSASSLYSGVPSRFSGSRSGTDFTLTISSLQPEDFATYYCQQGSAPFTFGQGTKVEIK
In the case of B1, the off-rate constant (koff) in assay [1] was determined as 7.2e-05 s⁻¹. Binding in assay [2] was put at a Kd of 0.44 nM.

B2: Fab C1 (Fab, V domains shown)
VH: EVQLVESGGGLVQPGGSLRLSCAASGFTIYYSSMHWVRQAPGKGLEWVASISSYYGYTYYADSVKGRFTISADTSKNTAYLQMNSLRAEDTAVYYCARYYAMDYWGQGTLVTVSS
VL: DIQMTQSPSSLSASVGDRVTITCRASQSVSSAVAWYQQKPGKAPKLLIYSASSLYSGVPSRFSGSRSGTDFTLTISSLQPEDFATYYCQQYYGYGGYPITFGQGTKVEIK
In assay [1], B2 yielded a koff of 0.00019 s⁻¹. The same molecule registered a Kd in assay [2] of 0.21 nM.

B3: Fab F1 (Fab, V domains shown)
VH: EVQLVESGGGLVQPGGSLRLSCAASGFDSGAYLRHWVRQAPGKGLEWVASIYPSYGYTSYADSVKGRFTISADTSKNTAYLQMNSLRAEDTAVYYCARSAASYYGYWHWYHFSPGMDYWGQGTLVTVSS
VL: DIQMTQSPSSLSASVGDRVTITCRASQSVSSAVAWYQQKPGKAPKLLIYSASDLYSGVPSRFSGSRSGTDFTLTISSLQPEDFATYYCQQYVSGGWLITFGQGTKVEIK
In the case of B3, the koff in assay [1] is 7.8e-05 s⁻¹. Binding in assay [2] was put at a Kd of 0.26 nM.
